Results on four molecules are retold here after patent US20230181639A1 (published 2023).

The target of test [1] is T1, EBV latent membrane protein LMP2 (mutant-type epitope, LTK; as in SEQ ID NO: 28) peptide on HLA-A*11:01 (human).
T1 peptide: SSCSSCPLTK
Briefly: multimer staining.

Test [2] has as its target T2, EBV latent membrane protein LMP2 (wild-type epitope, LSK; as in SEQ ID NO: 27) peptide on HLA-A*11:01 (human).
T2 peptide: SSCSSCPLSK
Briefly: multimer staining.

B1: E318 (TCR, V domains shown)
Valpha: GENVEQHPSTLSVQEGDSAVIKCTYSDSASNYFPWYKQELGKRPQLIIDIRSNVGEKKDQRIAVTLNKTAKHFSLHITETQPEDSAVYFCAASNRDDKIIFGKGTRLHILP
Vbeta: DAGVIQSPRHEVTEMGQEVTLRCKPISGHNSLFWYRQTMMRGLELLIYFNNNVPIDDSGMPEDRFSAKMPNASFSTLKIQPSEPRDSAVYFCASSLGAGHLWGYTFGSGTRLTVV
In the case of B1, the binding result in test [1] and in test [2] was “recognises” each time.

B2: E316 (TCR, V domains shown)
Valpha: AQKITQTQPGMFVQEKEAVTLDCTYDTSDQSYGLFWYKQPSSGEMIFLIYQGSYDEQNATEGRYSLNFQKARKSANLVISASQLGDSAMYFCAMVSGAGGGADGLTFGKGTHLIIQP
Vbeta: DGGITQSPKYLFRKEGQNVTLSCEQNLNHDAMYWYRQDPGQGLRLIYYSQIVNDFQKGDIAEGYSVSREKKESFPLTVTSAQKNPTAFYLCASSIGVGLSNTEAFFGQGTRLTVV
Consider B2, for which the binding result in test [1] and in test [2] was “recognises” in each case.

B3: E149 (TCR, V domains shown)
Valpha: GIQVEQSPPDLILQEGANSTLRCNFSDSVNNLQWFHQNPWGQLINLFYIPSGTKQNGRLSATTVATERYSLLYISSSQTTDSGVYFCAVVDNNDMRFGAGTRLTVKP
Vbeta: DTEVTQTPKHLVMGMTNKKSLKCEQHMGHRAMYWYKQKAKKPPELMFVYSYEKLSINESVPSRFSPECPNSSLLNLHLHALQPEDSALYLCASSPGRWYEQFFGPGTRLTVL
With B3, the binding result in test [1] and in test [2] was “recognises” in each case.

B4: E315 (TCR, V domains shown)
Valpha: KQEVTQIPAALSVPEGENLVLNCSFTDSAIYNLQWFRQDPGKGLTSLLLIQSSQREQTSGRLNASLDKSSGRSTLYIAASQPGDSATYLCAGKTSYDKVIFGPGTSLSVIP
Vbeta: EAGVAQSPRYKIIEKRQSVAFWCNPISGHATLYWYQQILGQGPKLLIQFQNNGVVDDSQLPKDRFSAERLKGVDSTLKIQPAKLEDSAVYLCASSVFPTSVEQYFGPGTRLTVT
In the case of B4, the binding result in test [1] and in test [2] was “recognises” in each case.
